Numbering of substitutions follows the chain as printed.

B1: AB-MN-22.8.1 (antibody, human IgG2, V domains shown)
VH: SGPGLVKPSETLSLTCTVSGGSISSYYWSWIRQPPGKGLEWIGYIYYSGSTNYNPSLKSRVTISVDTSKNQFSLKLTSVTAADTAVYYCARDQHSSSVYYYYYGMDVWGQGTTVTVSS
VL: ETQLTQSPGTLSLSPGERATLSCRASQSIYINYLAWYQQKPGQAPRLLISGASSRATGIPDRFSGSGSGTDFTLTISRLEPEDFAVYYCQQYGRSLTFGGGTEVEIKR
notes: also called AX014H22-8-1
B2: AB-MN-XG1-023 (antibody, human IgG1, V domains shown)
VH: QVQLQESGPGLVKPSQTLSLTCTVSGGSISSGGYYWSWIRQHPGKGLEWIGYIYYSGSTYYNPSLKSRVTISVDTSKNQFSLKLSSVTAADTAVYYCARENYDILTGFNWFDPWGQGTLVTVSS
VL: DIQMTQSPSSVSASVGDRVTITCRASQGISSWLAWYQQKPGKAPKVLIYSTSRLQSGVPSRFSGSGSGTDFTLTISSLQPEDFATYYCQQADSFRTFGQGTKVEIK
notes: also called MN23; AB-MN-XG1-23
B3: AB-MN-21.17.1 (antibody, human IgG1, V domains shown)
VH: QVQLQESGPGLVKPSETLSLTCTVSGGSISSYYWSWIRQPAGKGLEWIGRIYTSGSTNYNPSLKSRVTMSVDTSKNQFSLKLSSVTAADTAVYYCARDGQWLEDYGMDVWGQGTTVTV
VL: EIVLTQSPGTLSLSPGERATLSCWASQSVFSNYLAWYQQKPGQAPRLLIYGASSRATGIPDRFSGSGSGTDFPLTISRLEPEDFAVYYCQQYGSSPLTFGGGTKVEIK
notes: also called 21.17.1 I; AX014H21-17-1
B4: AB-MN-21.10.1 (antibody, human IgG1, V domains shown)
VH: QLEQSGPGLVKPSETLSLTCTVSDGSISSSSYYWGWIRQPPGKGLEWIGSIYYSGSTYYNPSLKSRVTISVDTSKNQFSLKLSSVTAADTAVYYCARHGSFFDYWGQGTLVTVSS
VL: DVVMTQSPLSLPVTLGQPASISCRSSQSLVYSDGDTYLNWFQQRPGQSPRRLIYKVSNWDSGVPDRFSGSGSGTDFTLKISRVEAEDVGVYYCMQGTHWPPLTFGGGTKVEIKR
notes: also called 21.10.1 g; AX014H21-10-1
B5: AB-MN-22.7 (antibody, human IgG2, V domains shown)
VH: QVQLVESGGGVVQPGRSLRLSCAASGFTFSSYGMHWVRQAPGKGLEWVAVISYDGSNKYYADSVKGRFTFSRDNSKNTLYLQMNSLRAEDTAVYYCARRGITMVRGAPSYYGMDVWGQGTTVTVSS
VL: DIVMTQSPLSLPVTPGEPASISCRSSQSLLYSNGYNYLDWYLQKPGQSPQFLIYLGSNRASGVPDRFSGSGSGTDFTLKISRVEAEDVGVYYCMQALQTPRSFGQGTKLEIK
notes: also called AX014H22-7
B6: AB-MN-21.1.1 (antibody, human IgG1, V domains shown)
VH: QVQLQESGPGLVKPSETLSLTCTVSGGSISSYYWSWIRQPPGKGLEWIGYIYYSGSTNYNPSLKSRVTISVDTSKNQFSLKLSSVTAADTAVYYCARRGYDILTGYDYFDYWGQGTLVTVSS
VL: DIQMTQSPSSVSASVGDRVTITCRASQGISIWLTWYQQKPGKAPKLLIYAASSLQSGVPSRFSGSGSGTDFTLTISSLQPEDFATYYCQQANSFPITFGQGTRLEIK
notes: also called 21.1.1 a; AX014H21-1-1
B7: AB-MN-22.12 (antibody, human IgG2, V domains shown)
VH: QVQLQESGPGLVKPSETLSLTCTVSGGSISSYYWSWIRQPPGKGLEWIGYIYSSGSTNYNPSLKSRVTISVDTSKNQFSLKLSSVTAADTAVYYCARDQHSSSFYYYYYGMDVWGQGTTVTVSS
VL: B6 VL with I31S, T34A, I96L, Q100P, R103K, L104V, E105D
notes: also called AX014H22-12
B8: AB-MN-21.14.1 (antibody, human IgG1, V domains shown)
VH: B6 VH with I102F
VL: B6 VL with I31S, T34A, Y36F
notes: also called 21.14.1 j; AX014H21-14-1
B9: AB-MN-XG1-080 (antibody, human IgG1, V domains shown)
VH: QVQLQESGPGLVKPSETLSLTCTVSGGSISSYYWSWIRQPPGKGLEWIGYIYYSGSTNYNPSLKSRVTISVDTSKNQFSLKLSSVTAADTAVYYCARDTRTIFGVVSGMDVWGQGTTVTVSS
VL: EIVLTQSPGTLSLSPGERATLSCRASQSVYSSYLAWYQQKPGQAPRLLIYGASSRAPGIPDRFSGSGSGTDFTLTISRLEPEDFAVYYCQHYGRSLTFGGGTKVEIK
notes: also called MN80
B10: AB-MN-XG1-141 (antibody, human IgG1, V domains shown)
VH: B9 VH with T23S, K75N, Q77H
VL: B9 VL with A25T, S28T, S32T, P57T, Y87F
notes: also called MN141
B11: AB-MN-XG1-051 (antibody, human IgG1, V domains shown)
VH: EVQLVEFGGGLVKPGGSLRLSCAASGFTFSSFRMNWVRQAPGEGLEWVSSITSSSSYIYYADSVKGRFTISRDNAKNSLYLQMNSLRAEDTAVYYCARFTAMALDYWGQGTLVTVSS
VL: DIQMTQSPSSLSASVGDRVTITCRASQGIFNYLAWYQQKPGKVPKLLIYAASTLQSGVPSRFSGSGSGTDFTLTISSLQPEDVAVYYCLKYNSAPWTFGQGTKVEIK
notes: also called MN51; AB-MN-XG1-51
B12: AB-MN-21.6.1 (antibody, human IgG1, V domains shown)
VH: QVQLQESGPGLVKPSQTLSLTCTVSGGSISSGGYYWSWIRQHPGKGLEWIGYIYYSGSTYYNPSLKSRVTISVDTSKNQFSLKLSSVTAADTAVYYCARAGKYYGSGSYLDYWGQGTLVTVSS
VL: not shown
notes: also called AX014H21-6-1
B13: AB-MN-21.5.2 (antibody, V domains shown)
VH: B12 VH with Q5E, E6Q, Y34R, V73I, K102T
VL: not shown
notes: also called 21.5.2 n; AX014H21-5-2
B14: AB-MN-22.13.1 (antibody, human IgG2, V domains shown)
VH: RVQLVESGGGLVQPGGSLRLSCAASGFTFSRYSMNWVRQAPGKGLEWVSYISSSSSTIYYADSVKGRFTISRDSAKNSLYLQMNSLRDEDTAVYYCARSLRSGGMDVWGQGTTVTVSS
VL: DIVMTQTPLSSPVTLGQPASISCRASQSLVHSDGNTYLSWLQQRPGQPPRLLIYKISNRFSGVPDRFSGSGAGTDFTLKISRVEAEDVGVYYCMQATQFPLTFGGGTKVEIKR
notes: also called AX014H22-13-1
B15: AB-MN-22.15 (antibody, human IgG2, V domains shown)
VH: QVQLQESGPGLVKPSQTLSLTCTVSGGSISSGGYYWSWIRQHPGKGLEWIGYIYYSGYTYYNPSLKSRVTISVDTSKNQFSLKLSSVTAADTAVYYCARDRYYDILTGYYNYGMDVWGQGTTVTVSS
VL: not shown
notes: also called AX014H22-15
B16: AB-MN-21.2.1 (antibody, human IgG1, V domains shown)
VH: QVQLQESGPGLVKPSQTLSLTCTVSGGSISSGGYYWNWIRQHPGKGLEWIGYIYYSGSTYYNPSLKSRVTISVDTSKNQFSLKLSSVTAADTAVYYCARTYYDILTGYPDAFDIWGQGTMVTVSS
VL: DIQMTQSPSSLSASVGDRVTITCRASQDIRNDLGWYQQKPGKAPKRLICAASSLQSGVPSSFSGSGSGTEFTLTISSLQPEDFATYYCLQHNSYPWTFGQGTKVEIK
notes: also called AX014H21-2-1
B17: AB-MN-22.14 (antibody, human IgG2, V domains shown)
VH: QVQLQESGPGLVKPSETLSLTCTVSGGSVISGGYYWSWIRQPPGKGLEWIGYIYYSGSSNYNPSLKSRVTISVDASKNQFSLRLSSVTAADTAVYYCARSMVRGVSFDYWGQGTLVTVSS
VL: B16 VL with D28G, C49Y, S61R, W96L, Q100G
notes: also called AX014H22-14
B18: AB-MN-22.20 (antibody, human IgG2, V domains shown)
VH: B16 VH with Y34S, N37T, S58N
VL: B16 VL with D28G, C49Y, S61R, A84T, H91Y, N92K
notes: also called AX014H22-20

The target of one experiment is CA-IX-His-ECD (his-V5 tagged version of the CA IX protein, extracellular domain) (human, UniProt Q16790 38-414). Put plainly: ELISA on CA-IX-His-ECD. For orientation: An ELISA detects its analyte on a solid surface through an enzyme-linked reagent.
Molecule B1 registered an OD of 2.41 OD. In turn, B2 displayed an OD of 2.22 OD.

B3 yielded an OD of 1.85 OD. B4 had an OD of 0.059 OD. As to B5, the OD was determined as 0.097 OD. As for B6, the OD stood at 1.64 OD.

With B7, the OD worked out at 2.38 OD.

On to B8, for which the OD stood at 1.78 OD. Regarding B9, the OD was determined as 2.71 OD. Turning to B10, the OD is 2.56 OD. The molecule B11 returned an OD of 2.47 OD. On the same count and under the same terms, to B12 belongs 0.618 OD; to B13, 0.893 OD. B14 had an OD of 1.85 OD. B15 came in with an OD of 0.831 OD. As to B16, the OD turned out to be 1.21 OD.

On to B17, for which the OD was 0.763 OD. Turning to B18, the OD worked out at 1.72 OD.

The target of another experiment is CA IX catalytic domain protein (CA9-CD) (human, UniProt Q16790 138-391). Put plainly: ELISA on CA9-CD (catalytic domain).
B1 had an OD of 2.77 OD. Same read-out and setting: to B2 belongs 2.42 OD; to B3, 2.66 OD. On the same count and under the same terms, for B5 the value was 0.715 OD; for B6, 2.5 OD. Molecule B7 had an OD of 2.58 OD. In turn, B8 came in with an OD of 2.47 OD. B9: the OD amounted to 2.85 OD.

As for B10, the OD was 2.56 OD.

Molecule B11 registered an OD of 2.88 OD.

With B12, the OD came out at 2.25 OD.

Take B13: the OD is 2.43 OD.

B14 returned an OD of 0.118 OD.

In turn, B15 yielded an OD of 2.53 OD.

For B16, the OD is 2.48 OD.

In the case of B17, the OD is 2.03 OD. Molecule B18 showed an OD of 2.71 OD.

The values above are taken from patent US20040018198A1 (Amgen, published 2004).
